Measurements taken from paper PMC4568301 (The Biochemical journal, 2012).

T1: Tir-EPEC (residues 1–550), His6-tagged (enteropathogenic Escherichia coli (EPEC), UniProt B7UM99 1-550)
T1 sequence: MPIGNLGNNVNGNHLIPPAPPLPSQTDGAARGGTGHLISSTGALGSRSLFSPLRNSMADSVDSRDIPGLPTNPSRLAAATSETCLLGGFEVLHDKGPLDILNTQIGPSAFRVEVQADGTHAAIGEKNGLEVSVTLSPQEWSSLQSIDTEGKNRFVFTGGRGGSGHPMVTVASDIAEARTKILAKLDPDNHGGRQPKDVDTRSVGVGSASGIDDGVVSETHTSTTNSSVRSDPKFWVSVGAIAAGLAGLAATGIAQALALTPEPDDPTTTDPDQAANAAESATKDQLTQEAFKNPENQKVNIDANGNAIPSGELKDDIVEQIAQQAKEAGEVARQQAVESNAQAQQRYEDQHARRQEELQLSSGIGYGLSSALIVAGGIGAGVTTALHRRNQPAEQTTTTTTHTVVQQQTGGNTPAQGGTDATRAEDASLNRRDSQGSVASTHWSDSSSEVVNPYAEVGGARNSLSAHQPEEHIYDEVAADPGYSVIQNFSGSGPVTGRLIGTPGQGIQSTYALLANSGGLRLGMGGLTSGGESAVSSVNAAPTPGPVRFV

T2: His6–Tir-EHEC (residues 1–558) (enterohaemorrhagic Escherichia coli …, UniProt Q7DB77 1-558)
T2 sequence: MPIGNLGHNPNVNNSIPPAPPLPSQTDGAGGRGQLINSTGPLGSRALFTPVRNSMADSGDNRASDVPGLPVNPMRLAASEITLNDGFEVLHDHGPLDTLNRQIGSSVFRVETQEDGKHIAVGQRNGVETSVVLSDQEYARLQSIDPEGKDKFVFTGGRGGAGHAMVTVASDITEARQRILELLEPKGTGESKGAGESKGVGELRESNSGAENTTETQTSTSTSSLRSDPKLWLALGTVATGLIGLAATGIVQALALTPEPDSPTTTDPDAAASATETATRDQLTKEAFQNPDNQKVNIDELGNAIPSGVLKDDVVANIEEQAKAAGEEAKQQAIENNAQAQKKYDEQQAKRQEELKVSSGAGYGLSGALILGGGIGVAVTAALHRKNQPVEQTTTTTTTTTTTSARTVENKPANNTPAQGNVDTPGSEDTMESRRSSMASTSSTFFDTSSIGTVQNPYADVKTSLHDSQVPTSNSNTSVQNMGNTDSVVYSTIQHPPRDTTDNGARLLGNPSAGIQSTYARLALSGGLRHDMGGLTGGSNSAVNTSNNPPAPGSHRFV

T3: NHERF2–VC (Na+/H+ exchanger regulatory factor 2, HA-tagged, fused to the C-terminal fragment of Venus), Q15599
T3 chain: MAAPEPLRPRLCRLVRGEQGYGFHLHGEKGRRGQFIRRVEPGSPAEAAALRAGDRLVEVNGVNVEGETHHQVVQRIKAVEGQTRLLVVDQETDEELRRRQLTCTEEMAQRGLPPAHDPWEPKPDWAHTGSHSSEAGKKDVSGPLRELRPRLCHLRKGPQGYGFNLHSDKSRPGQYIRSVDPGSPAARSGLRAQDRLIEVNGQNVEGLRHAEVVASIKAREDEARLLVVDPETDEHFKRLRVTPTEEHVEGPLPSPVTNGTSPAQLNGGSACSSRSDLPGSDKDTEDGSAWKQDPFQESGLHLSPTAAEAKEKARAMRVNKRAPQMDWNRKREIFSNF

B1: AnxA2-C (C-terminal region of AnxA2, amino acids 191–339), His6-tagged (domain or fragment)
chain: IDQDARDLYDAGVKRKGTDVPKWISIMTERSVPHLQKVFDRYKSYSPYDMLESIRKEVKGDLENAFLNLVQCIQNKPLYFADRLYDSMKGKGTRDKVLIRIMVSRSEVDMLKIRSEFKRKYGKSLYYYIQQDTKGDYQKALLYLCGGDD
B2: TirN-EPEC (residues 1–240), His6-tagged (domain or fragment)
chain: MPIGNLGNNVNGNHLIPPAPPLPSQTDGAARGGTGHLISSTGALGSRSLFSPLRNSMADSVDSRDIPGLPTNPSRLAAATSETCLLGGFEVLHDKGPLDILNTQIGPSAFRVEVQADGTHAAIGEKNGLEVSVTLSPQEWSSLQSIDTEGKNRFVFTGGRGGSGHPMVTVASDIAEARTKILAKLDPDNHGGRQPKDVDTRSVGVGSASGIDDGVVSETHTSTTNSSVRSDPKFWVSVGA
B3: TirN-EHEC (residues 1–237), His6-tagged (domain or fragment)
chain: MPIGNLGHNPNVNNSIPPAPPLPSQTDGAGGRGQLINSTGPLGSRALFTPVRNSMADSGDNRASDVPGLPVNPMRLAASEITLNDGFEVLHDHGPLDTLNRQIGSSVFRVETQEDGKHIAVGQRNGVETSVVLSDQEYARLQSIDPEGKDKFVFTGGRGGAGHAMVTVASDITEARQRILELLEPKGTGESKGAGESKGVGELRESNSGAENTTETQTSTSTSSLRSDPKLWLALGT
B4: TirC-EPEC (residues 369–550), His6-tagged (domain or fragment)
chain: SSALIVAGGIGAGVTTALHRRNQPAEQTTTTTTHTVVQQQTGGNTPAQGGTDATRAEDASLNRRDSQGSVASTHWSDSSSEVVNPYAEVGGARNSLSAHQPEEHIYDEVAADPGYSVIQNFSGSGPVTGRLIGTPGQGIQSTYALLANSGGLRLGMGGLTSGGESAVSSVNAAPTPGPVRFV
B5: TirC-EHEC (residues 366–558), His6-tagged (domain or fragment)
chain: SGALILGGGIGVAVTAALHRKNQPVEQTTTTTTTTTTTSARTVENKPANNTPAQGNVDTPGSEDTMESRRSSMASTSSTFFDTSSIGTVQNPYADVKTSLHDSQVPTSNSNTSVQNMGNTDSVVYSTIQHPPRDTTDNGARLLGNPSAGIQSTYARLALSGGLRHDMGGLTGGSNSAVNTSNNPPAPGSHRFV
B6: NHERF2–VC (Na+/H+ exchanger regulatory factor 2, HA-tagged, fused to the C-terminal fragment of Venus), Q15599 1-337 (natural protein)
chain: T3 chain

Experiments:
[1] = target: T1, Tir-EPEC (residues 1–550), His6-tagged; assay: […]
[2] = target: T2, His6–Tir-EHEC (residues 1–558); assay: […]
[3] = target: AnxA2–HA (His6–AnxA2 fused to an HA tag, residues 1–339) (human, UniProt P07355 1-339); assay: […]
[4] = target: T3, NHERF2–VC (Na+/H+ exchanger regulatory …); assay: split reporter; conditions: remark: other sources report otherwise

Chain of AnxA2–HA (His6–AnxA2 fused to an HA tag, residues 1–339) (P07355 whole entry, the tested form may be a part): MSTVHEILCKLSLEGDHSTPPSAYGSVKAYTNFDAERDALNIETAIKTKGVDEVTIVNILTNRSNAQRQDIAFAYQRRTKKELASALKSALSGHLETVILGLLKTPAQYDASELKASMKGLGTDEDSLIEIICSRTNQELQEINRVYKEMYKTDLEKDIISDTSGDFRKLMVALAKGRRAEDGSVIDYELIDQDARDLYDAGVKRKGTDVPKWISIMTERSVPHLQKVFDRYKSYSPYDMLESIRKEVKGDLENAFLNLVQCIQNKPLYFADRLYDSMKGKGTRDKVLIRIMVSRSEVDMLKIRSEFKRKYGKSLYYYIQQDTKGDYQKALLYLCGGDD

Binder | binding result [3] | other results
B1 | – | binding result [1]: binds; binding result [2]: binds
B2 | binds | –
B3 | binds | –
B4 | binds | –
B5 | binds | –
B6 | – | BiFC signal, percent of Venus fluorescence (% of Venus fluorescence) [4]: 75
